Changes are numbered by the printed parent chain.

Broadly, the EC50 (read off the curve) is the midpoint of the concentration-response curve. High values mean a need for much substance, low ones an effect from little substance. The Kd is the equilibrium constant for the complex coming apart. Low values mean tighter binding, high ones weaker binding.

Experiment [1] deals with T1, SARS-CoV-2 receptor binding domain (RBD) antigen (SARS-CoV-2, UniProt P0DTC2 319-527).
In experiment [2] the target is T1, SARS-CoV-2 receptor binding domain …. The experiment in a line: yeast surface display, titration of biotinylated RBD, flow cytometry. (In general: Flow cytometry measures light scatter and fluorescence of single cells or particles in a stream.)

B1: Reference (VH of Reference fused to a c-Myc epitope tag, displayed on yeast) (VHH)
VHH: QVQLQESGGGLVQAGGSLRLSCAASGRTFSEYAMGWFRQAPGKEREFVATISWSGGSTYYTDSVKGRFTISRDNAKNTVYLQMNSLKPDDTAVYYCAAAGLGTVVSEWDYDYDYWGQGTQVTVSS
As for B1, the “EC50 (read off the curve)” value in experiment [1] is around 6 nM. For the same molecule, the Kd in experiment [2] stood at 6 nM.

B2: AB-2 (VH of AB-2 fused to a c-Myc epitope tag, displayed on yeast) (VHH)
VHH: B1 VHH with W53Y, T103V, V104H
Consider B2, for which the 50% effective concentration (EC50 (read off the curve)) in experiment [1] was around 6 nM. This molecule also came in with a Kd in experiment [2] of 6.6 nM.

B3: AB-1 (VH of AB-1 fused to a c-Myc epitope tag, displayed on yeast) (VHH)
VHH: B1 VHH with T103V, V105L
Take B3: in experiment [1], the “EC50 (read off the curve)” value was around 5 nM. The same molecule yielded a Kd in experiment [2] of 9.3 nM.

(Values after patent US20230287089A1 (FLAGSHIP PIONEERING INNOVATIONS VI, published 2023).)
